Data as given in the DeepSol protein solubility set.

Assay: soluble on expression in E. coli; label from the status in PepcDB or PDB records

Sequence | soluble on expression in E. coli
SKDELGEVIHAFNRMMTKLRKREKQRQHSLATLEQKRAFSEEVIESIQYALVITDNLGTIIHSNAATQHIFQKTPEALENANIRDLIKTKMPNELSQILSRCLECDDIHLQNIDNEQQLSLTTRRLSNHGYLLFAIQD | not soluble
SKIASFDVDAQKGFTPLCPDELPVPGGDAIGGALNQLASRAALRLGSKDAHSPKAAWVVESAEQMLRPLAYPDADLTWVSHCVPGTPGFELLDELPRPIDYDFFVWKGVEPDLHPYGACYHDLAERRSTGVIEYLRQNGVSHVLVGGLALDYCVKNTALQLRRAGFEVLLYLPACRAIAEDTAQRACDEMRDAGVILCADLERLDSALA | not soluble
SKKVIGKKRAHAEDDELDPMDPSSYSDAPRGGWVVGLKGVQPRAADTTASTGIFFKFQITDLTKPDEKIEVLTKRDQIVFQGPLFQQRPYPSPGAVLRRNAEVASSQKKKPNSQFTEITKRGDGSDGLGDAD | soluble
SKRRRCKGKNMTKNLLVELGLEELPAYVVTPSEKQLGEKMAAFLGENRLSYESIQTFSTPRRLAVRVLGLADQQTDLTEDFKGPSKKIALDADGNFSKAAQGFVRGKGLTVDDIEFREVKGEEYVYVTKHEAGKSAKEVLAGIPEVLASLTFPVSMHWANNSFEYIRPVHTLIVLLGDEALELDFLGIKSGRVSRGHRFLGHEVEITNADSYEEDLRTVYVIANSKERENMIREQIKAIEAEQGVQVQIEEGLLNEVLNLVEYPTTFMGGFDTKYLDVPEDVLVTSMETHQRYFVVRDLDGRLKPNFISVRNGNAEHLENVVRGNEKVLVARLEDGEFFWREDQKLKIEDLVAKLANVTFHEKIGSLSEHMARAGVIAASLAEKAGLTAEEKAAVARAAEIYKFDLLTGMVGEFDELQGIMGEKYALLAGEDEAVATAIREHYLPDSADGALPETKVGAILALADKLDTLLSFFSVGLIPSGSNDPYALRRATQGIVRILDAFGWHIPMDELIDSLYGLSFDSLSYDNQAEVIRFIKARVDKMMGSTPKDIKEAVLSGSNFV | not soluble
SKSKEPLLNGFFWNRTSIYYNCQVIIEVTEMLHNASLLIDDIEDSSKLRRGFPVAHSIYGIPSVINSANYVYFLGLEKVLMLEHPEAVRVFTRQLLELHRGQGLDIHWRDTYTCPSEAEYRAMVLQKTGGLFGLAVGLMQLFSDWKRDLKPLLDTLGLYFQIRDDYANLNSKQYSANKSFCEDLTEGKFSFPTIHAIWSHPESTQVQNILRRRTENLDIKRYCVDYLEKVGSFAYTRQTLLDLEVEAYRLIKELGGNPELEALVEHLSRMYKEPEGGATVSQSK | soluble
SLCIDRQLYSAVQNSNRQKHQPLNSYVSLSDENESDHLEGSWSEDPEALIIDQESTRTLEREITKVLSPMENKVLDYYLRGYGYVKIAEIMGKTPKSIDNALQRIRGKIRNFSAPVQK | not soluble
SLDARLWLERIRELPIPDGIRIMNVCGGHERSISMAGLRTALPPAIRLIPGPGCPVCICPEEDIYQAIRLGLEGEAVVATFGDMLRVPVNLGRQAVRTLEQAKAAGADIRPIASPIEARIIAEKAAGKPVVLFAVGFETTMAPVAALMAEGLPDNLYILCSGRLTWPAVKLLLDSDECVLDALVAPGHVATVMGPEEWAFVADDYRLPVAIAGFTPASLLRAIHSTIVQWLEETPRLDNCYPEAVKPGGNPKAREFLDRSFDVAAGNWRGIGPIAASAYALKPGFAAHDARLHFPDYDAGDRRHAGEMPAGCDCARVVLGRIQPDECRIYGKPCSPRSPVGPCMVSDEGACRIWWAAGVRKDSAAA | not soluble
SLDTTRPLSWDFQSQLMSNLKILYCLNMLKLSNWYFGGIMKVYGLFGINENAINDFIENHIKTFTIINALNLETVKNLKEGDLVFITSTLREDLRNGTEGILGRVINVSLVPQMINGFEEKEIIAGRVQLEMLGFAKCVKYESIHVEITFRMY | not soluble
SLDVCRGMLCGFGAVCEPSVEDPGRASCVCKKNVCPAMVAPVCGSDASTYSNECELQRAQCNQQRRIRLLRQGPCGSRDPCANVTCSFGSTCVPSADGQTASCLCPTTCFGAPDGTVCGSDGVDYPSECQLLRHACANQEHIFKKFDGPCDPCQGSMSDLNHICRVNPRTRHPEMLLRPENCPAQHTPICGDDGVTYENDCVMSRIGAARGLLLQKVRSGQCQT | soluble
SLEDYLQGCRAALQESRPLHVVLGNEACDLDSTVSALALAFYLAKTTEAEEVFVPVLNIKRSELPLRGDIVFFLQKVHIPESILIFRDEIDLHALYQAGQLTLILVDHHILSKSDTALEEAVAEVLDHRPIEPKHCPPCHVSVELVGSCATLVTERILQGAPEILDRQTAALLHGTIILDCVNMDLKIGKATPKDSKYVEKLEALFPDLPKRNDIFDSLQKAKFDVSGLTTEQMLRKDQKTIYRQGVKVAISAIYMDLEAFLQRSNLLADLHAFCQAHSYDVLVAMTIFFNTHNEPVRQLAIFCPHVALQTTICEVLERSHSPPLKLTPASSTHPNLHAYLQGNTQVSRKKLLPLLQEALSAYFDSMKIPSGQPETADVSREQVDKELDRASNSLISGLSQDEG | soluble
SLENVMRSLGFGFACKKGLKPDSPNQDDFAALCCSAFRLFGVFDGHGPSGHDVSGYVHRMLFALLLTDESLNRNPQLALRNAFVAPSKLRKSALLQVVCLPLFRPQPFTNVGGYDEAKAVRFVLFFSGGELKRLECDIPYRVFLKGRLYPGLAMSRALGDAIASHAGVSCEPDLSTVELDRSCLFVIIASDGVWEFISNQEAVNIVNEAMGSERKVRAKAAAERLALEAFKRWVEEEGNVVDDVFPVSPGGSHALPLLTTDPFIAKMKFLTNILLVLSCVLVLAGTVQGQKME | not soluble
SLERYIDGRAVKADIFDHPVSYNINEITHTDDVHEALTASLNKYGNVDMAYMESLTDKSQSDLLEELRGRIFYNPLSKNYEIADRFISGNVMAKAEHIEEYLQSHPDNGEARISLEALRQSLPAPIPFEDLDFNFGERWIPAGVYSRYASWLFDTDVSVRYTASSDEYSIRADMTSPRIMNQYSVRSESRIFNGIALMRHAIHNTTPNITKTVLDKTGKEMKIRDPEVTLLANSKIDEIRNGFSDWLMEQSPEFKRKMADMYNRKFNCFVRPKYDGSHQSFPGLDLKGLGIPDLYPSQ | not soluble
SLFGYHDVEDFQAEIGEYKIKTERIGPFYSYVRENGERKEKNLSVETGRIIVNPVEPVNLPKEITNFLQIKFSKPFLAEPKSAVEVYATFPVEIAVFIAAKKNVGLVDVFSLQKPKYTLYGNPRAGIICRYWESELYSEIPQVDKYREGVIKLRIVNSDDEWVEVSNAVFDVYGMKIYYNEEMVCSSASVNIVSPKVAETRFIEQPLREKMKKALELYTARRIAVTSLKFVMEWGL | not soluble
SLHPDTILHNGRVTTLDRGNPNATAVAIKDGLFVEVGSDAEVMALAGSETKIIDLKGKRVLPGLIDNHTHVIRGGLNFNMELRWDGVRSLADAMYMLKRQVAITPAPQWVRVVGGFTEHQFVEKRLPTIEEINAVAPDTPVFLLHLYDRALLNGAALRAVGYTKDTPNPPGGEITRDANGNPTGLLLAKPNAGILYSTLAKGPKLPLDYQVNSTRHFMRELNRLGVTGVIDAGGGFQNYPDDYEVIQKLSDENQMTVRLAYNLFTQKPKQEKEDFLNWTSSVKYKQGNDYFRHNGAGEMLVFSAADFEDFRQPRPDMPPEMEGELEDVVRILAENRWPWRLHATYDETISRALDVFEKVNRDIPLEGLNWFFDHAETISDRSIDRIAALGGGIATQHRMAYQGEYFVERYGQGVAEATPPIARMLEKGVNVSAGTDATRVASYNPWVSLFWMVTGKTVGGMQLYPRANCLDRETALRMWTEKVTWFSNEEGKKGRIEKGQFADLVVPDKDYFSCAEDEISFLTSELTMVGGKIVYGAGDFRVLDESNIPPAMPDWSPVRTFGGYAAWGEPQGAGKNSLRRAAITSCGCASDCGVHGHDHAGAWTSKLPIADLKGFFGALGCSCWAV | soluble
SLIDNPHAQDYWPNRGQMDVQGLAVKYTEAGRAVLSDISFSVEGGLSMGLLGRTGSGKSTLLSALLRLASTDGEISIDGISWNSVPLEKWRKAFGVVPQKVFILTGTFRMNLDPHGRYSDEELWRVADQVGLKSVIEQFPDRLDFQLENGGSVLSHGHKQLMCLARSILSKARILLLDEPSAYLDTITLQVLRKTLKHAFSDCTVILSEHKVEPLLECDSFLVIEGSSVKSYDSIQKLLNEMSDLKQAVSAAD | soluble
SLKIAIVRLSALGDIIQSAVVLQFIKNFKKDIEIHWFVDEKFEGILKNHPLINKLYALPLKDKKILKSLKILLKARKNNYNAVIDLQGLIKSAIVSRILSRNNFGFDKNSLKESFAHNFYNQKLELDYNENVFVRYLSLTSFMLNTDFNVKNLAFKQDIFSVDENLKQLLNNKLKLDKNEKNILIHVGSSVENKIYPKTKLAILCKLLINEFQQTKIWLAWGNVKEYEFAKEVLNLSGIDETHIELAPKFNLEELMAFTKMMNLIIGNDSGPTHLAFALNKASITIFGATPSYRNAFQTHINKIIDAGKKIQNAKHIDKSDFCITRIEEEDIFKLAKGLLN | soluble
SLKIRERFSMVDLPVLIITAAIIGHDKYKAFHAGANDILQKPYHYSEFMARIQNLIMMKHTANQATRMEMAFLQSQIKPHFLYNVLNTIISLTHLDIEKAREVTEEFTNYLRMSFDFQNTSAISSFRHELSIINSYLSIEKTRFSNRLEVLFDIDEDIDFILPPLMIQPLVENAVLHGVSKKRGGGWIKLTAKKQSKNEYHIKVEDNGPGITPEKQIDLLSTDFDRSVGLKNINQRLKHFCGSELMISSTPDAGTSVSMLIHLAETTGSPKELKDTERT | soluble
SLKNKTLIALLLACSPTLAFAHNLTVGSPVPAVGVEKHGEIVLQDNNINYQKWRSADLLGKVRVIQAIAGRSSSKEMNAPLMAAITAAKFPAESYQTTTIINQDDAIWGTSSFVKSSAQDSKKEFPWSSMVLDEFGLVAQAWQLQAESSAIIVQDKQGNVLFVKEGALNEADIQTVLGLIQQNL | not soluble
SLKYEDINENTIKITLSFDDLTDYDIKLSDFFGNQEVIEQFFYELVDELGLENRFGNVGMLTFQIQPFPQGVHMIVHEEAMLGEGGEIPDDPEEFEELMTGFYNKLNEIGADMARERGITDFKPGLGLPGTKKDEAEQEPDFIYYSIRYEDIMSVLTGIKNVKFADEESEFYRYDGNFYLVVLDNQKEKGKMHVESTRSRMMEYGEATKMSREFLQEYGECLIATRALDVLRKI | soluble
SLKYVDEFRNGDYAKTLVRLIQKLTKKKINIMEICGSHTMAIFRYGIKDILPSNIRLISGPGCPVCVTSQGYIDTALELSLSREVIIATFGDMIRVPGTKTSLMKRKAEGADIKIVYSPMDALTLAENNPLKKVVFLSVGFETTTPITAITILEAKKRGVKNIFFLTSNKMVPPVMRTLVEDKELNITGFLLPGNVSAIIGKKPYEFLSSEYNVSGVVTGFEPLDILKGLKVLIDIINNNASVIVNEYKRVVRDEGNVTALRYIKEVFEVTDSTWRGIGNIEKSGYKINTEYEQFDAVKQFNINYKECDSSSECRCGDILKGKITPIECSLFKKACTPDHPVGSCMVSYEGVCAAYYKFLNT | soluble
